Assay results as given in patent US20220411491A1 (Hoffmann-La Roche, published 2022).

What was measured:
human GPRC5D [1] = target: T1, human GPRC5D (human, UniProt Q9NZD1 1-345); assay: cell-based or functional assay
human GPRC5D [2] = target: T1, human GPRC5D; assay: cell-based or functional assay; remark: listed apart in the source
[3] = target: T2, B-cell maturation antigen (BCMA) (UniProt Q02223 1-184, limits assumed); assay: cell-based or functional assay
T2 sequence (looked up): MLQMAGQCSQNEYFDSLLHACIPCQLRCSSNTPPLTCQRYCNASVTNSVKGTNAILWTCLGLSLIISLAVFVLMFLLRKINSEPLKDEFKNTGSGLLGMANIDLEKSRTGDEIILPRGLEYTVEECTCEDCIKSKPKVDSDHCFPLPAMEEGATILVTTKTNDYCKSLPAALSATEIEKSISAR

human GPRC5D [4] = target: T1, human GPRC5D; assay: cell-based or functional assay; remark: listed apart in the source
human GPRC5D [5] = target: T1, human GPRC5D; assay: flow cytometry on NCI-H929 cells expressing human GPRC5D
Description: To measure the binding to GPRC5D, we performed a flow cytometry-based binding assay on reported multiple myeloma cell lines (Lombardi et al., Molecular characterization of human multiple myeloma cell lines by integrative genomics: insights into the biology of the disease; Genes Chromosomes Cancer. 2007 March; 46(3):226-38.). The cell line NCI-H929 (ATCC® CRL-9068) was cultured in RPMI 1640 with Glutamax medium (Gibco) supplemented with 10% FBS, 1× Penicillin/Streptomycin (Gibco), lx Sodium Pyruvate (Gibco) and 50 μM beta-mercaptoethanol (Gibco).
0.1 Mio cells per well of a 96-round-bottom-well plate were incubated with 150 nM to 15 fM (serial dilutions of 1:10) of the indicated GPRC5D IgG constructs 5E11g2 and 5F11g2 or no construct for 30 min at 4° C. […] After two final washing steps, flow cytometric acquisition was performed on a custom-designed BD Biosciences Fortessa and analyzed using BD Diva. EC50 values were calculated, using GraphPad Prism software. […] None of the antibodies reaches saturation in the assessed concentration range.

T1 sequence (Q9NZD1 whole entry): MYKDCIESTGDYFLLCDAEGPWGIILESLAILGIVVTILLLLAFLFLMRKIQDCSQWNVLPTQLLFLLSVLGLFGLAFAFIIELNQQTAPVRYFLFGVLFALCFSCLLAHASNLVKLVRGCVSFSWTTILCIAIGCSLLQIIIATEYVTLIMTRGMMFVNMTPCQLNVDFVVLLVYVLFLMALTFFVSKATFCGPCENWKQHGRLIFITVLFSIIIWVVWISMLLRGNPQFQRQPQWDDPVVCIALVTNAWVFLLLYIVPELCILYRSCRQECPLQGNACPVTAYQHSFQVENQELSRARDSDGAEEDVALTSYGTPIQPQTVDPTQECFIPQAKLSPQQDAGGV

B1: 5E11-TCB (bispecific antibody, human IgG1, kappa, L234A L235A)
light 1: DIVLTQSPALAVSPGQRATISCRASQSVSISGINLMNWYQQKPGQQPKLLIYHASILASGIPTRFSGSGSGTDFTLTIDPVQADDIATYYCQQTRESPLTFGSGTNLEIKRTVAAPSVFIFPPSDRKLKSGTASVVCLLNNFYPREAKVQWKVDNALQSGNSQESVTEQDSKDSTYSLSSTLTLSKADYEKHKVYACEVTHQGLSSPVTKSFNRGEC
light 2: EVQLLESGGGLVQPGGSLRLSCAASGFTFSTYAMNWVRQAPGKGLEWVSRIRSKYNNYATYYADSVKGRFTISRDDSKNTLYLQMNSLRAEDTAVYYCVRHGNFGNSYVSWFAYWGQGTLVTVSSASVAAPSVFIFPPSDEQLKSGTASVVCLLNNFYPREAKVQWKVDNALQSGNSQESVTEQDSKDSTYSLSSTLTLSKADYEKHKVYACEVTHQGLSSPVTKSFNRGEC
heavy 1: ELQLEQSGGGLVQPGGSLTLSCAASGFTFSKYAMAWVRQAPTKGLEWVASISTGGVNTYYRDSVKARFTISRDNAKNTQYLQMDSLRSEDTATYYCATHTGDYFDYWGQGVMVTVSSASTKGPSVFPLAPSSKSTSGGTAALGCLVEDYFPEPVTVSWNSGALTSGVHTFPAVLQSSGLYSLSSVVTVPSSSLGTQTYICNVNHKPSNTKVDEKVEPKSCDKTHTCPPCPAPEAAGGPSVFLFPPKPKDTLMISRTPEVTCVVVDVSHEDPEVKFNWYVDGVEVHNAKTKPREEQYNSTYRVVSVLTVLHQDWLNGKEYKCKVSNKALGAPIEKTISKAKGQPREPQVCTLPPSRDELTKNQVSLSCAVKGFYPSDIAVEWESNGQPENNYKTTPPVLDSDGSFFLVSKLTVDKSRWQQGNVFSCSVMHEALHNHYTQKSLSLSPGK
heavy 2: not shown
Human GPRC5D [1]
  EC50 of T cell mediated killing, AMO-1 cells (LDH release): 14 pM
  EC50 of T cell mediated killing, L363 cells (LDH release): 12 pM
  EC50 of T cell mediated killing, NCI-H929 cells (LDH release): 7 pM
  EC50 of T cell mediated killing, RPMI-8226 cells (LDH release): 24 pM
Human GPRC5D [2]
  EC50 of in vitro killing, AMO-1: 8 pM
  EC50 of in vitro killing, EJM: 11 pM
  EC50 of in vitro killing, L363: 17 pM
  EC50 of in vitro killing, MOLP-2: 18 pM
  EC50 of in vitro killing, NCI-H929: 7 pM
  EC50 of in vitro killing, OPM-2: 2 pM
  EC50 of in vitro killing, RPMI: 64 pM

B2: BCMA-TCB (bispecific antibody, human IgG1, kappa, L234A L235A)
heavy 1: EVQLLESGGGLVQPGGSLRLSCAASGFTFSSYAMNWVRQAPGKGLEWVSAITASGGSTYYADSVKGRFTISRDNSKNTLYLQMNSLRAEDTAVYYCARYWPMSLWGQGTLVTVSSASTKGPSVFPLAPSSKSTSGGTAALGCLVEDYFPEPVTVSWNSGALTSGVHTFPAVLQSSGLYSLSSVVTVPSSSLGTQTYICNVNHKPSNTKVDEKVEPKSCDKTHTCPPCPAPEAAGGPSVFLFPPKPKDTLMISRTPEVTCVVVDVSHEDPEVKFNWYVDGVEVHNAKTKPREEQYNSTYRVVSVLTVLHQDWLNGKEYKCKVSNKALGAPIEKTISKAKGQPREPQVCTLPPSRDELTKNQVSLSCAVKGFYPSDIAVEWESNGQPENNYKTTPPVLDSDGSFFLVSKLTVDKSRWQQGNVFSCSVMHEALHNHYTQKSLSLSPGK
light 1: EIVLTQSPGTLSLSPGERATLSCRASQSVSAYYLAWYQQKPGQAPRLLMYDASIRATGIPDRFSGSGSGTDFTLTISRLEPEDFAVYYCQQYERWPLTFGQGTKVEIKRTVAAPSVFIFPPSDRKLKSGTASVVCLLNNFYPREAKVQWKVDNALQSGNSQESVTEQDSKDSTYSLSSTLTLSKADYEKHKVYACEVTHQGLSSPVTKSFNRGEC
heavy 2: not shown
light 2: B1 light 2
[3]
  EC50 of in vitro killing, AMO-1: 518 pM
  EC50 of in vitro killing, EJM: 132 pM
  EC50 of in vitro killing, L363: 127 pM
  EC50 of in vitro killing, MOLP-2: 32 pM
  EC50 of in vitro killing, NCI-H929: 311 pM
  EC50 of in vitro killing, OPM-2: 33 pM
  EC50 of in vitro killing, RPMI: 11 pM

B3: 5F11-TCB (bispecific antibody, human IgG1, kappa, L234A L235A)
light 1: DIVMTQAPLSVSVTPGESASISCRSSKSLLHSNGITYVYWYFQKPGKSPQVLIYRMSNLASGVPDRFSGSGSETDFTLKISRVEAEDVGIYHCGQLLENPYTFGAGTELELKRTVAAPSVFIFPPSDRKLKSGTASVVCLLNNFYPREAKVQWKVDNALQSGNSQESVTEQDSKDSTYSLSSTLTLSKADYEKHKVYACEVTHQGLSSPVTKSFNRGEC
light 2: B1 light 2
heavy 1: EVQLVESGGGLVQPGRSLKLSCAASGFSFSNYGMAWVRQAATKGLEWVASISTGGGNTYYRDSVKGRFIVSRDNAKNTQYLQMDSLRSEDTATYYCTRHDRGGLYWGQGVMVTVSSASTKGPSVFPLAPSSKSTSGGTAALGCLVEDYFPEPVTVSWNSGALTSGVHTFPAVLQSSGLYSLSSVVTVPSSSLGTQTYICNVNHKPSNTKVDEKVEPKSCDKTHTCPPCPAPEAAGGPSVFLFPPKPKDTLMISRTPEVTCVVVDVSHEDPEVKFNWYVDGVEVHNAKTKPREEQYNSTYRVVSVLTVLHQDWLNGKEYKCKVSNKALGAPIEKTISKAKGQPREPQVCTLPPSRDELTKNQVSLSCAVKGFYPSDIAVEWESNGQPENNYKTTPPVLDSDGSFFLVSKLTVDKSRWQQGNVFSCSVMHEALHNHYTQKSLSLSPGK
heavy 2: not shown
Human GPRC5D [1]
  EC50 of T cell mediated killing, AMO-1 cells (LDH release): 3 pM
  EC50 of T cell mediated killing, L363 cells (LDH release): 1 pM
  EC50 of T cell mediated killing, NCI-H929 cells (LDH release): 1 pM
  EC50 of T cell mediated killing, RPMI-8226 cells (LDH release): 2 pM
Human GPRC5D [2]
  EC50 of in vitro killing, AMO-1: 6 pM
  EC50 of in vitro killing, EJM: 3 pM
  EC50 of in vitro killing, L363: 3 pM
  EC50 of in vitro killing, MOLP-2: 1 pM
  EC50 of in vitro killing, NCI-H929: 4 pM
  EC50 of in vitro killing, OPM-2: 1 pM
  EC50 of in vitro killing, RPMI: 6 pM

B4: 5E11g2 (antibody, human IgG1, kappa, V domains shown)
VH: ELQLEQSGGGLVQPGGSLTLSCAASGFTFSKYAMAWVRQAPTKGLEWVASISTGGVNTYYRDSVKARFTISRDNAKNTQYLQMDSLRSEDTATYYCATHTGDYFDYWGQGVMVTVSS
VL: DIVLTQSPALAVSPGQRATISCRASQSVSISGINLMNWYQQKPGQQPKLLIYHASILASGIPTRFSGSGSGTDFTLTIDPVQADDIATYYCQQTRESPLTFGSGTNLEIKR
notes: Glyco-engineered human IgG1 (GlycoMab technology); afucosylation degree 59.1%; also called BSH-5E11-G7 hu IgG1 G2
Human GPRC5D [4]
  EC50 of GPRC5D-IgG induced tumor cell lysis (ADCC, LDH release), AMO-1: 405 pM
  EC50 of GPRC5D-IgG induced tumor cell lysis (ADCC, LDH release), NCI-H929: 84 pM
Human GPRC5D [5]
  EC50: ~69500 pM

B5: 5F11g2 (antibody, human IgG1, kappa, V domains shown)
VH: EVQLVESGGGLVQPGRSLKLSCAASGFSFSNYGMAWVRQAATKGLEWVASISTGGGNTYYRDSVKGRFIVSRDNAKNTQYLQMDSLRSEDTATYYCTRHDRGGLYWGQGVMVTVSS
VL: DIVMTQAPLSVSVTPGESASISCRSSKSLLHSNGITYVYWYFQKPGKSPQVLIYRMSNLASGVPDRFSGSGSETDFTLKISRVEAEDVGIYHCGQLLENPYTFGAGTELELKR
Human GPRC5D [4]
  EC50 of GPRC5D-IgG induced tumor cell lysis (ADCC, LDH release), AMO-1: 96 pM
  EC50 of GPRC5D-IgG induced tumor cell lysis (ADCC, LDH release), NCI-H929: 48 pM
